B1: HAS040 (VHH)
VHH: QVQLNESGGGMVQAGGSLRLSCAASGRTVSNYAAGWFRQAPGKEREFVAAINWNKTTTYADSVKGRFIISREYAKNTVALQMNSLKPEDTAVYYCAAVFRIVAPKTQYEYDYWGQGTQVTVSS
notes: anti-albumin VHH-His; also called HAS40
B2: HAS041 (VHH)
VHH: QVQLIESGGGLVQAGGSLGLSCAASGRPVSNYAAAWFRQAPGKEREFVAAINWNKTATYADSVKGRFTISRDNAKSTVALQMNSLKPEDTAVYYCAAVFRVVAPKTQYDYDYWGQGTQVTVSS
notes: anti-albumin VHH-His; also called HAS41
B3: LCP0143 (VHH)
VHH: EVQLVESGGGLVQAGGSLRLSCAAPEMGATINVMAWYRQAPGKQRELVARLPLDNNIDYGDFAKGRFTISRDITRNTVYLQMNNLKPDDTAVYYCNVLLSRQINGAYVHWGQGTQVTVSS
notes: llama anti-C5 VHH, tested as VHH-His fusion; not shown: His-tag
B4: LCP0136 (VHH)
VHH: EVQLVESGGGLVQPGESLRLSCAISGFAFTDVGMSWVRQAPGKGLEWVSSISSGSSITTYSDSVKGRFTISRDNARNTLFLQMNSLKPEDTAVYYCGRYYCTGLGCHPRRDSALWGQGTQVTVSS
notes: as for B3
B5: LCP0146 (VHH)
VHH: EVQLVESGGGLVQAGGSLRLSCAASGRAFSDYAMAWFRQAPGKEREFVAGIGWSGGDTLYADSVRGRFTNSKDNAKNRMSLQMNSLKPEDTAVYYCAARQGQYIYSSMRSDSYDYWGQGTQVTVSS
notes: as for B3
B6: LCP0123 (VHH)
VHH: EVQLVESGGGLVQAGGSLTLSCAMSGGTRPFEDYVMAWFRQATGKEREFVATITWMGETTYYKDSVNGRFAISRDNAENTVALQMNSLEPEDTAVYFCAAHSRSSFSTSGGRYNPRPTEYDYWGQGTQVTVSS
notes: as for B3
B7: LCP0095 (VHH)
VHH: EVQLVESGGGLVQAGGSLRLSCTASGRTISTTVMAWFRQAPGKEREFVAADHWGDAGTVYADSVKGRFTISRDNAKNTVYLQMNYLKPEDTSVYYCAARPPTYVGTSRDSRAYDYWGQGTQVTVSS
notes: as for B3
B8: LCP0296 (VHH)
VHH: EVQLVESGGGVVQAGDSLTLTCTAPVGTISDYGMGWFRQAPGKEREFVASISWGGMWTDYADSVKGRFTISRDNDKNAVYLRMNSLNAEDTAVYYCGRGRMYRGIGNSLAQPKSYGYWGQGTQVTVSS
notes: as for B3
B9: LCP0115 (VHH)
VHH: EVQLVESGGGLVQAGGSLRLSCAASGRTFSGILSPYAVGWFRQAPGKGREFVSTITSGGSAIYTDSVKGRFTLSRDNAKDTVYLQMNSLKPEDTAVYYCAVRTRRYGSNLGEVPQENEYGYWGQGTQVTVSS
notes: as for B3
B10: LCP0302 (VHH)
VHH: EVQLVESGGGLVQAGGSLRLSCAASGRTFSGILSAYAVGWFRQAPGKEREFVSTITSGGSTLSADSVKGRFTLSRDNAKDTVYLQMNSLKPEDTAVYYCAVRTWPYGSNRGEVPTENEYGHWGQGTQVTVSS
notes: as for B3
B11: CRL0499 (bispecific antibody)
chain: EVQLLESGGGLVQPGGSLRLSCAASGFTFRSFGMSWVRQAPGKGPEWVSSISGSGSDTLYADSVKGRFTISRDNSKNTLYLQMNSLRPEDTAVYYCTIGGSLSRSSQGTLVTVSSGGGGSGGGGSGGGGSEVQLVESGGGLVQPGGSLRLSCAASGRAHSDYAMAWFRQAPGQEREFVAGIGWSGGDTLYADSVRGRFTNSRDNSKNTLYLQMNSLRAEDTAVYYCAARQGQYIYSSMRSDSYDYWGQGTLVTVSS
notes: anti-albumin VHH / (G4S)3 / anti-C5 VHH fusion, purified by Protein A; also called CRL0499 (HSA/C5)
B12: HAS038 (VHH)
VHH: QVQLVESGGGLVQPGGSLRLSCTGSGHSFSTYTVGWFRQAPGEERKFVASISWSGEVTLYGDSVKGRFTISRDNRKKTVYLQMHSLKPEDSAIYYCAAKRGGRPTDSSDDYFYWGQGTQVTVSS
notes: anti-albumin VHH-His
B13: HAS020 (VHH)
VHH: QVQLVESGGGLVQAGGSLRLSCAASGRTFGSDAAGWFRQASGKEREFVASISWSGGYTYYADSVKGRFTISSDNVKNTVYLQMNSLTPEDTAVYFCATGNRYSDYRISLVTPSQYEYWGQGTLVTVSH
notes: anti-albumin VHH-His
B14: HAS081 (VHH)
VHH: B13 VHH with G30S, S50A, G56N, Y60S, T87K, F95L, T98A, L123Q
notes: anti-albumin VHH-His
B15: HAS091 (VHH)
VHH: B13 VHH with V64G, K65T, Y102D, L123Q
notes: anti-albumin VHH-His
B16: HAS096 (VHH)
VHH: B13 VHH with I70S, G99V, L123Q
notes: anti-albumin VHH-His
B17: HAS093 (VHH)
VHH: B13 VHH with V64G, E116D, L123Q
notes: anti-albumin VHH-His
B18: HAS080 (VHH)
VHH: QVRLAESGGGRVQAGESLRLSCVASGRTFSNDAAGWFREASGKEREFVASISWSGNYTYYADSVKGRFTISEDNVKNTVYLQMTSLKPEDTAVYYCAAGNRYSDYRISLVTPRLYEYWGQGTQVTVSH
notes: anti-albumin VHH-His
B19: HAS044 (VHH)
VHH: QVQLVESGGGLVQAGGSLRLSCAASGRTFSSYAIGWFRQAPGKAREFVARVSTIAGDTDYADSVKGRFTISRDNAKNTVYLQMNSLKPEDTAVYYCAADSYNVRLVTGEADYWGEGTQVTVSS
notes: anti-albumin VHH-His
B20: HAS079 (VHH)
VHH: B19 VHH with Q1E, G16D, R27F, S31N, D62N, S63A, E89D, D99E
notes: anti-albumin VHH-His
B21: HAS077 (VHH)
VHH: B19 VHH with V106G
notes: anti-albumin VHH-His

As usually defined, the Kd is the equilibrium constant for the complex coming apart. Broadly, the koff is the first-order rate constant of dissociation. As a reminder, the kon is the second-order rate constant of association.

Changes are numbered by the printed parent chain. Names may count otherwise.

One assay concerns the target T1, human serum albumin (human, UniProt P02768 25-609).
T1 construct: also called HSA; human albumin
The assay is described as follows: SPR (Biacore 3000), biotinylated albumin on CAP chip, pH 7.4. Background: Surface plasmon resonance follows binding to a sensor surface in real time, without labels.
Protocol: (§1) Biotinylated albumin was captured onto a CAP chip saturated with Biotin CAPture reagent containing deoxyribooligonucleotides (obtained from GE Healthcare). Concentrations of purified VHH domains were injected for 5 minutes at a flowrate of 50 μL/min. Three concentrations were assessed per VHH domain. Bound analyte was allowed to dissociate for 600 seconds. The chip surface was regenerated after each concentration by injecting 6 M guanidine HCl/0.25 M NaOH for 2 minutes at 10 μL/min. Kinetics were determined at pH 7.4 and pH 6.0 in HBS-EP buffer using a 1:1 Langmuir model (local Rₘₐₓ and constant RI) and double reference subtraction (subtraction of a buffer concentration cycle from the sample concentration cycle and subtraction of a parallel reference flow cell).
B1 yielded a Kd of 0.341 nM, a koff of 0.00044 s⁻¹ and a kon of 1.29e+06 M⁻¹ s⁻¹.

With B2, binding was put at a Kd of 0.461 nM, the koff is 0.000566 s⁻¹ and the association rate constant (kon) is 1.23e+06 M⁻¹ s⁻¹.

In a further assay the target is T2, Cynomolgus monkey serum albumin (cynomolgus monkey, UniProt A2V9Z4 25-608).
T2 construct: also called CSA; cynomolgus albumin
The description is as above.
Protocol: as §1
Turning to B1, the Kd stood at 0.539 nM, the koff was found to be 0.000562 s⁻¹ and the kon is 1.04e+06 M⁻¹ s⁻¹.

The molecule B2 returned a Kd of 1.15 nM, a koff of 0.00123 s⁻¹ and an on-rate constant (kon) of 1.07e+06 M⁻¹ s⁻¹.

Another assay addresses T3, human complement protein C5 (human, UniProt P01031 19-1676).
T3 construct: Native C5 is a two-chain protein made from one precursor; also called hC5; human C5
The assay can be described thus: SPR (Biacore).
B3 returned a Kd of 0.082 nM, an off-rate (koff) of 5.66e-05 s⁻¹ and an on-rate constant (kon) of 691000 M⁻¹ s⁻¹.

As for B4, binding was put at a Kd of 1.81 nM, the off-rate constant (koff) was 0.000882 s⁻¹ and the kon is 486000 M⁻¹ s⁻¹.

Consider B5, for which the Kd worked out at 0.0435 nM, the koff came to 9.75e-05 s⁻¹ and the kon came out at 2.24e+06 M⁻¹ s⁻¹.

Turning to B6, the Kd turned out to be 1.99 nM, the koff was found to be 0.000216 s⁻¹ and the kon came out at 108000 M⁻¹ s⁻¹.

For the molecule B7, the Kd is 2.5 nM, the koff is 0.000714 s⁻¹ and the kon worked out at 286000 M⁻¹ s⁻¹.

In the case of B8, the Kd came to 0.417 nM, the off-rate (koff) was found to be 3.9e-05 s⁻¹ and the kon worked out at 93400 M⁻¹ s⁻¹.

B9 displayed a Kd of 0.309 nM, a koff of 3.48e-05 s⁻¹ and an on-rate constant (kon) of 113000 M⁻¹ s⁻¹.

B10 yielded a Kd of 0.195 nM, a koff of 2.22e-05 s⁻¹ and a kon of 114000 M⁻¹ s⁻¹.

The target of a further assay is T4, cynomolgus monkey (cyno) complement protein C5 (cynomolgus monkey, UniProt A0A2K5U1T1 19-1676).
T4 construct: also called cC5; cyno C5
The assay can be described thus: SPR (Biacore).
On to B3, for which the Kd stood at 0.167 nM, the koff is 0.000124 s⁻¹ and the kon is 741000 M⁻¹ s⁻¹.

Regarding B4, binding was put at a Kd of 0.318 nM, the koff stood at 0.000251 s⁻¹ and the kon was determined as 789000 M⁻¹ s⁻¹.

Molecule B5 yielded a Kd of 0.0922 nM, a koff of 0.000244 s⁻¹ and a kon of 2.64e+06 M⁻¹ s⁻¹.

In turn, B6 showed a Kd of 3.8 nM, an off-rate constant (koff) of 0.000381 s⁻¹ and a kon of 100000 M⁻¹ s⁻¹.

Take B7: binding was characterised by a dissociation constant (Kd) of 3.69 nM, the koff came to 0.00168 s⁻¹ and the kon came to 456000 M⁻¹ s⁻¹.

B8 had a Kd of 1.55 nM, a koff of 0.000106 s⁻¹ and a kon of 68400 M⁻¹ s⁻¹.

In turn, B9 showed a dissociation constant Kd of 0.107 nM, a koff of 1.02e-05 s⁻¹ and a kon of 95300 M⁻¹ s⁻¹.

Take B10: the affinity, expressed as Kd, was 0.232 nM; the koff was determined as 2.38e-05 s⁻¹; the kon was 103000 M⁻¹ s⁻¹.

The target of another assay is T3, human complement protein C5. The assay is described as follows: SPR (Biacore), pH 6.0.
On to B11, for which the affinity, expressed as Kd, was 0.448 nM; the koff amounted to 0.00112 s⁻¹; the kon was 2.51e+06 M⁻¹ s⁻¹.

Another assay has as its target T4, cynomolgus monkey (cyno) complement …. The assay is described as follows: SPR (Biacore), pH 6.0.
As to B11, the equilibrium dissociation constant (Kd) was determined as 2.02 nM, the koff stood at 0.00388 s⁻¹ and the kon was found to be 1.92e+06 M⁻¹ s⁻¹.

Another assay addresses T3, human complement protein C5. The assay can be described thus: SPR (Biacore), pH 7.4.
Take B11: the Kd was found to be 0.15 nM, the koff came out at 0.000332 s⁻¹ and the on-rate (kon) is 2.22e+06 M⁻¹ s⁻¹.

The next assay deals with T1, human serum albumin. The assay can be described thus: SPR (Biacore 3000), biotinylated albumin on CAP chip, pH 6.0.
Protocol: as §1
Consider B1, for which the Kd was 0.466 nM, the dissociation rate constant (koff) is 0.000208 s⁻¹ and the kon came to 445000 M⁻¹ s⁻¹.

Regarding B2, the Kd came to 1.04 nM, the koff came to 0.000387 s⁻¹ and the kon stood at 373000 M⁻¹ s⁻¹.

Another assay has as its target T2, Cynomolgus monkey serum albumin. The assay is described as above.
Protocol: as §1
On to B1, for which the Kd turned out to be 0.764 nM, the koff is 0.000281 s⁻¹ and the kon amounted to 368000 M⁻¹ s⁻¹.

B2 yielded a Kd of 2.37 nM, a koff of 0.000739 s⁻¹ and an association rate constant (kon) of 312000 M⁻¹ s⁻¹.

For a further assay, the target named is T1, human serum albumin. The assay can be described thus: BLI (Octet HTX), VHH-His on Penta-His sensors, 100 nM albumin. Background: In BLI a coated tip is dipped into the sample, and binding shifts an interference pattern.
Description: VHH sequences were first analyzed by SDS-PAGE and Coomassie staining to determine approximate concentration relative to a known standard. Supernatant concentrations were then normalized and subjected to biolayer interferometry on an Octet HTX (Pall/ForteBio). Penta-His sensors were exposed to kinetics buffer for 60 seconds to establish baseline measurements. The sensors were then loaded with VHH-His containing supernatants for 300 seconds before a second baseline was established in kinetics buffer over 120 seconds. Tips were then incubated with 100 nM HSA or CSA in kinetics buffer for 600 seconds and dissociation measured over an additional 600 seconds.
As to B12, the binding result was “binds”.

Turning to B13, the binding result is given as “binds”.

Take B14: the binding result is reported as “binds”.

As to B15, the binding result is “binds”.

For the molecule B16, the binding result is given as “binds”.

For B17, the binding result is “binds”.

As for B18, the binding result is reported as “binds”.

As to B19, the binding result is “binds”.

As to B20, the binding result is “binds”.

Regarding B21, the binding result is listed as “binds”.

Values taken from US20250163138A1 (Alexion, published 2025).
